Source: patent US12187807B2, “Antibody molecules to C5AR1 and uses thereof” (Visterra, Inc., priority 2020, dated 2025)

T1: biotinylated peptide representing the N-terminus of C5aR1 with tyrosine sulfation (Homo sapiens, UniProt P21730)
T1 construct: the N-terminus with tyrosine sulfation
T1 sequence (P21730 1-37): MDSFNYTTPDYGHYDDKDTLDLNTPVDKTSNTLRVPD

T2: C5aR1 (Homo sapiens, UniProt P21730)
T2 sequence (P21730 1-350): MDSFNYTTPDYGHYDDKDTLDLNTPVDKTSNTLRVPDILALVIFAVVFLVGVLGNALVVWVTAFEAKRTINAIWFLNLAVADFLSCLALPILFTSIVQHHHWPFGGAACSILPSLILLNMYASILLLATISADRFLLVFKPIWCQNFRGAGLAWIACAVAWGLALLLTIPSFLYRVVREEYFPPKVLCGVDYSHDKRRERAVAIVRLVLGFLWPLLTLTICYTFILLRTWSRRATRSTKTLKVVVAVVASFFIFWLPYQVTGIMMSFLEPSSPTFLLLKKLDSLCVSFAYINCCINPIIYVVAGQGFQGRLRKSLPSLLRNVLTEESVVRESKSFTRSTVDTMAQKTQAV


Columns and labels:
[1] = biological target: T3, biotinylated peptide representing ECL2 of C5aR1 (Homo sapiens, UniProt P21730); experiment: Epitope mapping by biolayer interferometry, ECL2 peptide; assay type: binding; parameters: key: “+” indicates binding to the listed peptide; “−” indicates lack of binding to the listed peptide
T3 construct: cyclic ECL2 peptide spanning from residues R175 to C188
Experimental: (§1) The epitope mapping was undertaken, using biolayer interferometry, on a series of exemplary anti-C5aR1 antibodies generated as described in Example 1. Briefly, for each antibody, biotinylated peptides representing ECL2, the N-terminus with tyrosine sulfation, and the N-terminus without tyrosine sulfation, were immobilized in a streptavidin biosensor. Subsequently, the biosensor was exposed to 10 μg/mL of antibody to detect antibody binding to the immobilized peptide. The results of the epitope mapping study are shown in Table 4 (“+” indicates binding to the listed peptide; “−” indicates lack of binding to the listed peptide).

[2] = biological target: T1, biotinylated peptide representing the N-terminus of C5aR1 with tyrosine sulfation; experiment: Epitope mapping by biolayer interferometry, N-terminus with tyrosine sulfation; assay type: binding; parameters: key: “+” indicates binding to the listed peptide; “−” indicates lack of binding to the listed peptide; settings: 10 μg/mL of antibody, biotinylated peptide on streptavidin biosensor
Experimental: as §1

[3] = system: C5aR1 mutants (N-terminus, ECL1, ECL2, ECL3); experiment: Alanine scanning / mutagenesis epitope mapping of C5aR1; assay type: binding, human
Text: FIG. 5A is a diagram showing the results of alanine scanning mutations of site I interaction with mab 583. The N-terminal amino acid sequence of C5aR1 is listed across the top of the figure. Glycosylation sites are indicated by rectangle boxes. The only natural glycosylation site is at position N5. The other sites were introduced by mutagenesis. Mutations that abolished clone 583 binding are circled. The sulfated tyrosines at positions 11 and 14 are marked with a star sign. FIG. 5B is a diagram showing results of alanine scanning mutations of site I interaction with mab 66. Mutations that abolished clone 66 binding are circled. The sulfated tyrosines at positions 11 and 14 are marked with a star sign.
Ala substitutions of T8 & D10 moderately reduces its affinity while Y11 & D15 abolishes mAb binding. […] N-glycosylation of at N17 or D17P also abolishes mAb binding. N5 glycan is tolerated but a tandem glycosylation (N5 & N17) is not tolerated. mAb core epitopes are T8-G12 but nature of AA present in D15-D18 influence its binding. […] The core epitope appears to be located near T8-G12, with additional contributions from D15-D18.
Clone 66 was previously characterized as a site I binder and its binding is dependent on tyrosine sulfation at positions 11Y and/or 14Y. […] It should be noted that the only the only non-human species to retain clone 66 binding was baboon, which is the only NHP that retains the DYGHY motif.
However, it was unknown if additional contacts were made with ECL1 or ECL3. […] The data is highlighted in FIG. 5C-5E.
The core epitope of clone 11 is from E180-P183; the core epitope of clone 329 is from E180-P184; and the core epitope of clone 336 is from R178-P183. […] The data for clones 11, 329, and 336 is highlighted in FIG. 5F.

[4] = biological target: T2, C5aR1; experiment: GeneBLAzer reporter assay (C5aR1 mediated Gα signaling); assay type: cell-based; parameters: host or cells: vendor's C5aR1 GeneBLAzer reporter cell line; settings: for inhibition of C5aR1 signaling / activity in the GeneBLAzer assay: C5a dose response with varying concentrations of antibody; for antagonism of C5aR1 compared to reference antibodies or to Avacopan: 10 nM of antibody, 10 nM C5a; for inhibition of C5aR1 mediated Gα signaling in the presence of C5-alpha: U937 cells, increasing concentrations of C5-alpha, FIGS. 20A-20G
Experimental: In addition, a GeneBLAzer reporter assay was used, which mimics the calcium flux assay. The GeneBLAzer assay kit and C5aR1 cell line were commercially available from Thermo Fisher (Catalog #K1544). The assay was performed as recommend by the manufacturer. Briefly, antibodies or antagonists were incubated for 30 minutes at 37° C. C5a was then added to the cells and incubated at 37° C. for an additional 4-5 hours. Beta-lactamase substrate was then added and incubated for 2 hours at room temperature. Fluorescent measurements for each well with an excitation/emission of 409/460 (blue) and 409/530 (green) were measured. An increase in the blue to green ratio was proportional to C5aR1 activation and was used to calculate the percent of activation for the cells in each well.
Exemplary anti-C5aR1 antibodies generated as described in Example 1 were screened for antagonist activity against human C5aR1 using the GeneBLAzer assay, as described in Example 1. Briefly, cells were pre-incubated with 10 nM of antibody followed by addition of 10 nM C5a. The engineered induction of beta-lactamase expression by C5a-C5aR1 signaling was measured using the BLA substrate and calculating the ratio of blue and green fluorescence.

[5] = biolayer interferometry, 10 μg/mL of antibody, biotinylated peptide on streptavidin biosensor

| Molecule | Binding to Cyclic ECL2 peptide [1, 5] | Binding to Sulfated N-terminal peptide [2] | non-human species that retains binding [3] | requirement of tyrosine sulfation (Y11, Y14) for binding [3] | inhibition of C5aR1 signaling / activity in the GeneBLAzer assay [4] | Binding to Cyclic ECL2 peptide ([1]; peptide spanning residues R175 to C188) | binding to C5aR1 mutant ([3]; Ala mutation of E180 & Y181) | binding to C5aR1 mutant ([3]; mutation of Y182, P183 & P184) | antagonism of C5aR1 compared to reference antibodies or to Avacopan [4] | inhibition of C5aR1 mediated Gα signaling in the presence of C5-alpha [4] | cross-reactivity to cyno and rhesus monkey [3] | binding to C5aR1 mutant ([3]; G12A/T) | binding to C5aR1 mutant ([3]; G12E/D) | binding to C5aR1 mutant ([3]; mutations at D15) | binding to C5aR1 mutant ([3]; mutations at positions 13 and 14) |
| --- | --- | --- | --- | --- | --- | --- | --- | --- | --- | --- | --- | --- | --- | --- | --- |
| clone 66: anti-C5aR1 Site I antibody; VH SEQ ID NO: 483, VL SEQ ID NO: 543 (antibody, V domains shown) VH: QVQLQQSDAELVKPGASVKISCKASGYTFIDHAIHWVKQRPEQGLEWIGYISPGNGEIKYNEKFKAKATLTADKSSSAAYMQLNSLTSADSAVYFCKRALFYYTGKYQPMDYWGQGTTVTDSS VL: DIVMTQSQKFMSTTAGDRVSITCKASQNVGSAVVWYQQKPGRSPKLLIYSSSIRYTGVPDRFTGSGSGTDFTLTINSVQSEDLADYFCQQYNSFPLTFGAGTKLEIK | − | + | baboon | sulfation is only required at position 14 | highly potent |  |  |  |  |  |  |  |  |  |  |
| clone 329: anti-C5aR1 Site II antibody; VH SEQ ID NO: 492, VL SEQ ID NO: 552 (antibody, V domains shown) VH: QVQLQQSGAELTKPGASVKLSCKASGYTFTNYWMHWVKQRPGQGLEWIGYLNPSSGYTKYNQKFKDKATLTADKSSSTAYMQLNSLTYEDSAVYYCTRSGGDNYGNPYYFDRWGQGTTVTVSS VL: DVVMTQTPLSLTVSLGDQASISCRSSQSLVHSNGNTYLHWYLQKPGQSPKFLIYKVSNRFSGVPDRFSGSGSGTDFRLKISRVEAEDLGVYFCSQSTLVPLTFGAGTKLEIK | + | − |  |  | inhibited in a dose-dependent fashion | bound to a cyclic ECL2 peptide | abolished mAb binding | reduced binding | improved | inhibition of C5aR1 mediated Gα signaling |  |  |  |  |  |
| clone 583: anti-C5aR1 Site I antibody; VH SEQ ID NO: 536, VL SEQ ID NO: 595 (antibody, V domains shown) VH: EVQLVESGGGLVKPGGSLKLSCAASGFTFNAYAMSWVRQTPEKRLEWVASISTGGNTYCPDSVKDRFTVSRDNVRNILYLQMSSLRSEDTAMYYCTRGYQRFSGFAYWGQGTLVTVS VL: DVVMTQTPLSPPVSLGYQASISCRSSQSLVHSNGNTYLNWYLQKPGQSPKLLIYKVSNRLSGVPDRFSGSGSGTDFTLKISRVETEDLGVYFCSQSTHVPYTFGGGTKLEIK | − | + |  | tyrosine sulfation is not required | highly potent |  |  |  | improved | inhibition of C5aR1 mediated Gα signaling | lack of cross-reactivity | tolerated | abolish binding | abolish binding | tolerated |
